Source: the nanobody polyreactivity screen of Harvey et al. (2022)

Experiment: yeast display, Sf9 membrane polyspecificity reagent, FACS + sequencing; frameworks hold sequencing errors
Summary of the method: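 Genes from sorted yeast were amplified by colony PCR, read by MiSeq 2 × 250 sequencing and filtered on CDR length. These cells carried a synthetic nanobody library in Saccharomyces cerevisiae BJ5465 and were sorted by FACS into low and high (top ~1%) gates on anti-HA and streptavidin fluorescence. Polyreactivity is labelled according to the gate of origin.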

| Sequence | polyreactivity (PSR sort gate) |
| --- | --- |
| QVQLVESGGVLVQAGGSLRLSCAASGSIFWPNSMGWYRQAPGKERELVAGISYSGGRTYYADSVKGRFTISRDNAKNTVYLQMNSLKPEDTAVYYCAALSRRDYNYWGQGTQVTVSS | high polyreactivity |
| QVQLVESGGVLVQAGGSLRLSCAASGSIFYRYAMGWYRQAPGKERELVAANSSNGVSTYYADSVKGRFTISRDNAKNTVYLQMNSLKPEDTAVYYCARDVYASPRLYTSRYNYWGQGTQVTVSS | low polyreactivity |
| QVQLVESGGVLVQAGGSLRLSCAASGSTFFVYAMGWYRQAPGKERELVAAISSRGSTYYADSVKGRFTISRDNAKNTVYLQMNSLKPEDTAVYYCAAEYTVSYLRMDYWGQGTQVTVSS | low polyreactivity |
| QVQLVESGGVLVQAGGSLRLSCAASGSTFLLNTMGWYRQAPGKERELVATITSTDDTNYADSVKGRFTISRDNAKNTVYLHMNSLKPEDTAVYYCAKGYLNYGRDWDFDSWGQGTQVTVSS | low polyreactivity |
| QVQLVESGGVLVQAGGSLRLSCAASGSTFPRNAMGWYRQAPGKERELVAAISGRGVRTYYADSVKGRFTISRDNAKNTVYLQMNSLKPEDTAVYYCAAERQPYRTSSYNYWGQGTQVTVSS | high polyreactivity |
| QVQLVESGGVLVQAGGSLRLSCAASGSTFQKYTMGWYRQAPGKERELVAGISGGGSTYYADSVKGRFTISRDNAKNTVYLQMNSLKPEDTAVYSCAAETLYTGPPPRYDYWGQGTQVTVSS | low polyreactivity |
| QVQLVESGGVLVQAGGSLRLSCAASGSTFSYYAMGWYRQAPGKERELVAAIDSSGGRTYYADSVKGRFTISRDNAKNTVYLHMNSLKPEDTAVYYCAADASYTEGMDYWGQGTQVTVSS | high polyreactivity |
| QVQLVESGGVLVQAGGSLRLSCAASGSTFTTNAMGWYRQAPGKERELVARISRIGASTHYADSVKGRFTISRDNAKNTVYLQMNSLKPEDTAVYYCAKSKGTPGNFGYWGQGTQVTVSS | low polyreactivity |
| QVQLVESGGVLVQAGGSLRLSCAASGYIFNKYVMGWYRPAPGKERELVAAISASGGSTYYADSVKGRFTLSRDNAKNTVYLQMNSLKPEDTAVYYCAATLYRRMDYWGQGTQVTVSS | high polyreactivity |
| QVQLVESGGVLVQAGGSLRLSCAATGSIFQYYAMGWSRQAPGKERELVATNRRSGGSTYYADSVKGRFTISRDTAKHTVFLQMNSLKPEDTAVYYCARRLYTWETGGWRYDSWGQGTQVTVSS | high polyreactivity |
| QVQLVESGGVLVQARGSLRLSCAASGRTFRYYAMGWYRQAPGQEREMVATISWSGGRTSYADSVKGRFTISRDNAKNTVYLQMNSLKPEDTAVYDCAVESWLDADDSYPDSILVDYWGQGTQVTVSS | low polyreactivity |
| QVQLVESGGVVVQAGGSLRLRCAASGITIPRYPMGWYRQAPGKERELVAAISPSGGGTYYADSVKGRFTISRDNAKNTVYLQMNSLKPEDTAVYYCAARYLGYLLSGYPPYDYWVQGTQVTVSS | high polyreactivity |
| QVQLVESGIGLVQAGGSLRLSCAASGSTCDFYAMGWYRPAPGKERELVAAITSDGRTNYADSVKGRFTISRDNAKNTVYLQMNSLKPEDTAVYYCAVTYGYEYDYWGQGTQVTVSS | low polyreactivity |
| QVQLVESGLGIVQAGGSLRLSCASSGSTFIFNTMVWYRQAPGKERELVAAIRLSGGSTYYADSVKGRFTISRDNAKNTVYLLINSLNPEDTAVYYCARRLATSGHTYDYWGQGTQVSVSS | low polyreactivity |
| QVQLVESGLGLVQAGGSLRLSCAASGFIFGSYAMGWYRQAPGKERELVAAISWSGGGTYYADSVKGRFTISRDNAKNTVYLQMNSLKPEDTAVYYCNARQFSGLGYWGQGTQVTVSS | high polyreactivity |
| QVQLVESGLGLVQAGGSLRLSCAASGSIFNIYAMGWYRQAPGKERELVAAITTGTRTYADSVKGLFTISRDNAKNTVYLLMNSLKPEDTAVDYCAAVSPTYPNTFYRYNYWGQGTQVTVSS | low polyreactivity |
